From patent publication US20200164032A1 (WASHINGTON UNIVERSITY, published 2020)

What was measured:
[1] = target: T1, murine CCL24 (mouse, UniProt Q9JKC0 27-119); assay: SPR, R17 on CM5 chip; KD,eq from saturation binding, Scatchard analysis
T1 construct: also called mCCL24
T1 sequence: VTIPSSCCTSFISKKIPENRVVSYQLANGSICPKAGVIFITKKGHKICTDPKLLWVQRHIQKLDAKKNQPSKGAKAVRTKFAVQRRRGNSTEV

[2] = target: T2, murine CCL4 (mouse, UniProt P14097 24-92); assay: as above
T2 construct: also called mCCL4
T2 sequence: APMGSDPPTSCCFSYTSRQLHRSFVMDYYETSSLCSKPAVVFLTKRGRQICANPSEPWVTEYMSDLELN

[3] = target: T3, murine CCL20 (mouse, UniProt O89093 28-97); assay: as above
T3 construct: also called mCCL20
T3 sequence: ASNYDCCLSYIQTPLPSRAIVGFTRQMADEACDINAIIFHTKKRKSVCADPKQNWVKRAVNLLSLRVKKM

[4] = target: T4, murine CCL3 (mouse, UniProt P10855 24-92); assay: as above
T4 construct: also called mCCL3
T4 sequence: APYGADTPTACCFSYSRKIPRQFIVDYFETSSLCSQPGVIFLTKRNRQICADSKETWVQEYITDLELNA

[5] = target: T5, CCL9 (UniProt P51670 22-122); assay: as above
T5 sequence: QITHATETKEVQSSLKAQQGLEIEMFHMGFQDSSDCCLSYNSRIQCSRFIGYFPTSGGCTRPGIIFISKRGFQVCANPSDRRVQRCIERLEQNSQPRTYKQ

[6] = target: T6, human CCL5 (human, UniProt P13501 24-91); assay: as above
T6 construct: also called hCCL5
T6 sequence: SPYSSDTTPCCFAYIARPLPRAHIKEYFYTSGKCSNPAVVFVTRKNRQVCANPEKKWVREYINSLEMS

[7] = target: T7, murine CCL5 (mouse, UniProt P30882 24-91); assay: as above
T7 construct: also called mCCL5

[8] = target: T8, murine CCL12 (mouse, UniProt Q62401 23-104); assay: as above
T8 construct: also called mCCL12
T8 sequence: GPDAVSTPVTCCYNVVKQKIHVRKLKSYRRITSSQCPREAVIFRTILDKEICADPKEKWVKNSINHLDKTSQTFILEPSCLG

[9] = target: CCL2 (species not given); assay: SPR, R17 variant on CM5 chip; column kd x 10^-3 s-1
[10] = target: T9, murine XCL1 (lymphotactin) (mouse, UniProt P47993 22-114); assay: SPR, R17 amine-coupled to CM5 chip
T9 construct: also called mXCL1; lymphotactin (XCL1)
T9 sequence: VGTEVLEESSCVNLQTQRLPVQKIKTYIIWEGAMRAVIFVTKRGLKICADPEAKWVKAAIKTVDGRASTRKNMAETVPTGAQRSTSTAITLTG

[11] = target: T10, murine CCL11 (mouse, UniProt P48298 24-97); assay: SPR, R17 amine-coupled to CM5 chip
T10 sequence: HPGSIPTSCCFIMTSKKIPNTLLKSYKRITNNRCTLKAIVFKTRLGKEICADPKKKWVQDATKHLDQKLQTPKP

[12] = target: T2, murine CCL4; assay: SPR, R17 amine-coupled to CM5 chip
[13] = target: T4, murine CCL3; assay: SPR, R17 amine-coupled to CM5 chip
[14] = target: T6, human CCL5; assay: SPR, R17 amine-coupled to CM5 chip
[15] = target: T7, murine CCL5; assay: SPR, R17 amine-coupled to CM5 chip
[16] = target: T11, murine CCL19 (mouse, UniProt O70460 26-108); assay: SPR, R17 amine-coupled to CM5 chip
T11 construct: also called mCCL19
T11 sequence: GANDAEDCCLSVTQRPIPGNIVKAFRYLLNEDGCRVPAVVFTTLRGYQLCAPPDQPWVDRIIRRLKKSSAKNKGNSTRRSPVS

[17] = target: T12, human CCL3 (human, UniProt P10147 23-92); assay: SPR, R17 amine-coupled to CM5 chip
T12 construct: also called hCCL3
T12 sequence: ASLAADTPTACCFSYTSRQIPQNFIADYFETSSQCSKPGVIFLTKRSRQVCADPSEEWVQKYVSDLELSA

[18] = target: murine CCL2 (mouse, UniProt P10148 24-148)
[19] = target: CCL2 (species not given); assay: SPR, R17 variant on CM5 chip; column ka x 10^6 M-1s-1
[20] = target: T13, murine TNF-alpha (mouse, UniProt P06804 80-235); assay: SPR, R17 on CM5 chip
T13 construct: also called mTNF-alpha; TNF-α
T13 sequence: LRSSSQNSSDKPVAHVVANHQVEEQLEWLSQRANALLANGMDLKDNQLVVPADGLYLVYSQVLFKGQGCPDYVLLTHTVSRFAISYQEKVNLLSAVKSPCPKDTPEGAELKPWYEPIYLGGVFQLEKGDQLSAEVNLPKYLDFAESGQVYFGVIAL

[21] = target: T14, murine CCL21 (mouse, UniProt P84444 24-133); assay: SPR, R17 on CM5 chip
T14 construct: also called mCCL21
T14 sequence: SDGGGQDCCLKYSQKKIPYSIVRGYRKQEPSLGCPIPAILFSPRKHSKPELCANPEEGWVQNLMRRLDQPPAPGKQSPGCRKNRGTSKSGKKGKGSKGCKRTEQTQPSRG

T7 sequence (P30882 24-91 limits assumed): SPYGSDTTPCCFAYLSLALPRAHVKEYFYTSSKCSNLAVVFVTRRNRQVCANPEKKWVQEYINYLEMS
Sequence of murine CCL2 (P10148 24-148 limits assumed): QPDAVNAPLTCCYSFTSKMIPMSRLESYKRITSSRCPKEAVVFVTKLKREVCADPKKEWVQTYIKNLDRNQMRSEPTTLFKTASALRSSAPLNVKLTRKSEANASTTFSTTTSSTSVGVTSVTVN

B1: R17 chemokine decoy receptor of Rodent herpesvirus Peru (RHVP), wild type, C-terminal 8-His fusion (receptor)
chain: GPVGEPVASEINEASKVSSRLLTQDILFRKDRQATISLPIKLPVEDIITQTCDKITYGPLKFLDLLEKETAVLPLSTDITCPACLGRAVLVGKWECPAHVAVNESDLTVFGPNKEEHVPQFVTVQQPSDGKMQRLFFAKFLGTEESLAVLRVPGPDGHLCIQEALIHFKELSGAGVCSLWKANDSREEGLEMKQVDCLETTVLENQTCIATTLSKKIYHRLYCGERLMTGGQVSTRVLLTALGFYKRQPYTFHRVPKGMVYVHLIDSGSEDYMEYSECEEVTPGRYEDKQISYTFYTDLFQTADGEPVLASVWGTSGLKDSAYESCAFVIPTKGRRKLVPRRIMSKCYPFRLTYHPSTMTVRLDVRVEKHHGATDQGFVFLKMESGTYSEGREYYLDRVLWGEDSSTNNVLQ
notes: not shown: C-terminal 8-His tag
[1]
  Kd: 2.2 nM
[2]
  Kd: 0.8 nM
[3]
  Kd: 3.4 nM
[4]
  Kd: 0.4 nM
[5]
  Kd: 1.3 nM
[6]
  Kd: 0.9 nM
[7]
  Kd: 0.1 nM
[8]
  Kd: 1.3 nM
[9]
  koff: 0.02 s⁻¹
[10]
  dissociation time of the complex: > 10 min
[11]
  binding result: binds
[12]
  dissociation time of the complex: > 10 min
[13]
  dissociation time of the complex: > 10 min
[14]
  dissociation time of the complex: > 10 min
[15]
  dissociation time of the complex: > 10 min
[16]
  binding result: binds
[17]
  dissociation time of the complex: > 10 min
[18]
  Kd: 12 nM
[19]
  kon: 2e+06 M⁻¹ s⁻¹
[20]
  binding result: no binding
[21]
  binding result: no binding
